Results: article PMC8724787
Like-named read-outs stand apart in the source and are kept apart here.

B1: C10 intact bivalent IgG1 (human monoclonal antibody EDE1 C10) (protein)
chain 1: EVQLVESGAEVKKPGASVKVSCKASGYTFTSYAMHWVRQAPGQRLEWMGWINAGNGNTKYSQKFQDRVTITRDTSASTAYMELSSLRSEDTAIYYCARDKVDDYGDYWFPTLWYFDYWGQGTLVTVSS
chain 2: QSALTQPASVSGSPGQSITISCTGTSSDVGGFNYVSWFQQHPGKAPKLMLYDVTSRPSGVSSRFSGSKSGNTASLTISGLQAEDEADYYCSSHTSRGTWVFGGGTKLTVL
B2: C10 monovalent antigen binding fragment (Fab) (protein)
chain 1: B1 chain 1
chain 2: B1 chain 2

Target: DENV1 strain Hawaii envelope (E) protein on virions (Dengue virus 1 (strain Hawaii))
Test: ELISA; apparent

Row | Binder | Kd | Kd (Fab)
1 | B1 | 2.6 nM | –
2 | B2 | – | 9.85 nM
